Laboratory results as given in the supplement of paper PMC10126150.
± gives the standard deviation of the averaged measurements.

Tested on: ATP
Assay: switch fluorescence ratio, 500 uM ATP over buffer (Cy3 cluster intensity, sum of 5 cycles each) (fold (ratio)); higher = stronger signal-on switching upon ATP binding; sequences stand for … in TCGTCGGCAGCGTCAGATGTGTATAAGAGACAGTTTTTTTTTTTTTTTTTTTTTTTTT…TC
Conditions: aptamer strand: ATP DNA aptamer (quencher-CACCTGGGGGAGTATTGCGGAGGAAGG + anchor), 100 nM annealed; ATP concentration: 500 uM
Outline: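 Values give the fluorescence ratio for each switch-domain sequence, averaged from per-cluster ratios of summed target-cycle to summed buffer-cycle Cy3 intensity. The Cy3-labelled switching-strand clusters sat on a modified Illumina MiSeq flow-cell, were annealed to 100 nM quencher-labelled ATP aptamer, and were imaged in selection buffer, then after 15 min with 500 uM ATP at 22 °C. Five cycles ran with NaOH stripping and re-annealing between them, and clusters outside 100-1000 RFU were excluded.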
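Also: ATP exposure 15 min at 22 °C before imaging.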

TAGGTAGGTT showed a switch fluorescence ratio of 1.015 ± 0.0086.

In the case of TTTGAAAATT, the switch fluorescence ratio is reported as 0.99 ± 0.06.

With TGGGGCTTGG the switch fluorescence ratio was 1.01 ± 0.051.

Work on CGGAAGGCAT yielded a switch fluorescence ratio of 1.04 ± 0.025.

Work on TAGGTCTAGT yielded a switch fluorescence ratio of 0.98706 ± 0.0005.

TAAAATCCTG showed a switch fluorescence ratio of 1.05 ± 0.039.

For AGGAGTGTCG, the switch fluorescence ratio was 1.04 ± 0.039.

With TCTAAAGGGT the switch fluorescence ratio was 0.9988 ± 0.0021.

For ATAAAATTTT, the switch fluorescence ratio was 1 ± 0.03.

TTTTTTGCAG gave a switch fluorescence ratio of 0.987 ± 0.029.

In the case of GAATTGCTGG, the switch fluorescence ratio is reported as 1.01 ± 0.015.

Sequence TTAAAATGGG has a switch fluorescence ratio of 1.01 ± 0.043.

With TACTCCGTTT the switch fluorescence ratio was 2.15 ± 0.34.

For GGGGTAAAAT, the switch fluorescence ratio was 1.01 ± 0.035.

Sequence TTTCCGGAAT has a switch fluorescence ratio of 1.661 ± 0.011.

For TGCATGAAGC, the switch fluorescence ratio was 1.034 ± 0.0057.

Work on ACTGTAACGG yielded a switch fluorescence ratio of 1.19 ± 0.034.

With TGGACTTGGT the switch fluorescence ratio was 0.97 ± 0.017.

TTTTGAGCAT was tested, and the switch fluorescence ratio was 1.07 ± 0.12.

Sequence CACAAGGTAT has a switch fluorescence ratio of 1.03 ± 0.033.

For ACGTCTGAGG, the switch fluorescence ratio was 1.02 ± 0.029.

In the case of TTGGGTATTG, the switch fluorescence ratio is reported as 0.966 ± 0.034.

GAGATCGTAT showed a switch fluorescence ratio of 0.991 ± 0.017.

TAGTAGGGGT gave a switch fluorescence ratio of 1.002 ± 0.0061.

Work on GATGTATAGA yielded a switch fluorescence ratio of 1.01 ± 0.022.

AATGAGATCG showed a switch fluorescence ratio of 1.01 ± 0.016.

GTTATCATTT gave a switch fluorescence ratio of 0.989 ± 0.011.

AATTGTTGGG was tested, and the switch fluorescence ratio was 1.01 ± 0.041.

In the case of GAGTGTGGGC, the switch fluorescence ratio is reported as 1.01 ± 0.099.

Sequence AGGAGGAGGG has a switch fluorescence ratio of 0.932 ± 0.021.

Work on TGCCCGGACA yielded a switch fluorescence ratio of 1.01 ± 0.027.

For TCATCGTCT, the switch fluorescence ratio was 1.01 ± 0.023.

AATGTTTGTT was tested, and the switch fluorescence ratio was 0.971 ± 0.015.

With TTTTTACAGG the switch fluorescence ratio was 1.13 ± 0.16.

In the case of TCCCTTGGGT, the switch fluorescence ratio is reported as 1 ± 0.0092.

With ATTGATTGAG the switch fluorescence ratio was 0.986 ± 0.022.

ATACTGAGGA gave a switch fluorescence ratio of 1.05 ± 0.026.

With AGCTCTGACG the switch fluorescence ratio was 1.02 ± 0.024.

With TGCTGTAGGG the switch fluorescence ratio was 0.966 ± 0.053.

TGAGGTTAAC gave a switch fluorescence ratio of 0.957 ± 0.023.

For TATACGAAGA, the switch fluorescence ratio was 1.08 ± 0.045.

TATGATTACG showed a switch fluorescence ratio of 1.03 ± 0.013.

ATGGGGGCAC was tested, and the switch fluorescence ratio was 0.971 ± 0.032.

GCCGGTTATC showed a switch fluorescence ratio of 1 ± 0.017.

CGGGGGACAG showed a switch fluorescence ratio of 1.03 ± 0.066.

GTCGTGCCTG showed a switch fluorescence ratio of 1.04 ± 0.15.

TATATTTTTC gave a switch fluorescence ratio of 1.15 ± 0.24.

With TTAATTTTCC the switch fluorescence ratio was 1.46 ± 0.49.

TGAAGACAAC gave a switch fluorescence ratio of 1.04 ± 0.025.

Sequence ATAAGTGGCA has a switch fluorescence ratio of 0.944 ± 0.027.

With TTAGGTTTTT the switch fluorescence ratio was 1.08 ± 0.19.

Sequence TTTTACTATT has a switch fluorescence ratio of 0.996 ± 0.041.

For ATGTTAAGAG, the switch fluorescence ratio was 0.9766 ± 0.0089.

TACGAATATT was tested, and the switch fluorescence ratio was 1.025 ± 0.0046.

For CTTTCGTGGA, the switch fluorescence ratio was 1 ± 0.022.

GAGTGCGTCG showed a switch fluorescence ratio of 1.01 ± 0.16.

TGTCGTTCTT was tested, and the switch fluorescence ratio was 0.973 ± 0.013.

For CGCTATTGTG, the switch fluorescence ratio was 1.01 ± 0.021.

Work on TAGTTGTTTA yielded a switch fluorescence ratio of 0.985 ± 0.046.

AAAAAAGAAG showed a switch fluorescence ratio of 1.01 ± 0.021.

Work on TTATCCGGCG yielded a switch fluorescence ratio of 0.986 ± 0.056.

In the case of GTTAAGTTTT, the switch fluorescence ratio is reported as 0.985 ± 0.021.

With TCATGCCGGG the switch fluorescence ratio was 1.04 ± 0.014.

In the case of CGAGAAGAGT, the switch fluorescence ratio is reported as 1.01 ± 0.053.

Sequence AGGGCAGGGT has a switch fluorescence ratio of 0.975 ± 0.018.

TCAACTGGTG showed a switch fluorescence ratio of 1.35 ± 0.16.

TTGCAGGTGG was tested, and the switch fluorescence ratio was 1.03 ± 0.011.

For TGCCAATGAA, the switch fluorescence ratio was 0.965 ± 0.02.

With GCATGCGCGC the switch fluorescence ratio was 0.984 ± 0.012.

Sequence ACGAGGTAGA has a switch fluorescence ratio of 1.02 ± 0.021.

ACCGATTGTT was tested, and the switch fluorescence ratio was 1.017 ± 0.0016.

Work on TTATCGAGGA yielded a switch fluorescence ratio of 0.973 ± 0.021.

With TGGAGTGTGG the switch fluorescence ratio was 0.912 ± 0.087.

Work on CTTGGGCCCT yielded a switch fluorescence ratio of 0.979 ± 0.033.

With TTATGCTAAA the switch fluorescence ratio was 0.994 ± 0.04.

For GGTGGTTGTT, the switch fluorescence ratio was 1.01 ± 0.043.

For TTTTACGACA, the switch fluorescence ratio was 1.15 ± 0.014.

In the case of GTTGGTGTTG, the switch fluorescence ratio is reported as 0.998 ± 0.032.

ACTGCAGAAC gave a switch fluorescence ratio of 1.9 ± 0.34.

In the case of CTTTTAATTT, the switch fluorescence ratio is reported as 1.04 ± 0.022.

In the case of GTAAAATTGG, the switch fluorescence ratio is reported as 0.998 ± 0.025.

Work on CGGAATAATT yielded a switch fluorescence ratio of 1.04 ± 0.025.

TGAAATTTTG gave a switch fluorescence ratio of 1.01 ± 0.015.

For TGTTGGGGGG, the switch fluorescence ratio was 1.01 ± 0.057.

For ATGAGGTTTT, the switch fluorescence ratio was 0.991 ± 0.012.

AGGTGGGGAT gave a switch fluorescence ratio of 0.994 ± 0.021.

AGTGTTGCCG was tested, and the switch fluorescence ratio was 0.965 ± 0.069.

Sequence GGGGTGCCGG has a switch fluorescence ratio of 0.977 ± 0.092.

Sequence CCTTTGGGCT has a switch fluorescence ratio of 0.989 ± 0.025.

Sequence AGGCTAGTGG has a switch fluorescence ratio of 0.993 ± 0.035.

Sequence GATCTGTCAG has a switch fluorescence ratio of 1.01 ± 0.021.

TAGGGGTTTG gave a switch fluorescence ratio of 0.979 ± 0.027.

Work on AATGGTAGGG yielded a switch fluorescence ratio of 1 ± 0.03.

In the case of TGGAATTGCC, the switch fluorescence ratio is reported as 1.024 ± 0.0089.

In the case of ATGCGAATAT, the switch fluorescence ratio is reported as 0.989 ± 0.015.

With TTGAAGTTAC the switch fluorescence ratio was 1.111 ± 0.0072.

Work on CGGATCGGTG yielded a switch fluorescence ratio of 0.991 ± 0.019.

TGTGACGGGG gave a switch fluorescence ratio of 1.02 ± 0.035.

GCTATTGGGG showed a switch fluorescence ratio of 0.993 ± 0.014.

In the case of TTTCGGGGTA, the switch fluorescence ratio is reported as 1 ± 0.045.

With TAGAATTACT the switch fluorescence ratio was 1.05 ± 0.056.

TAAGTTAGTG was tested, and the switch fluorescence ratio was 1 ± 0.016.

GCGGTGAGGG showed a switch fluorescence ratio of 0.993 ± 0.052.

Work on GTCGCAGGAG yielded a switch fluorescence ratio of 1.05 ± 0.011.

With GGGAGGGGCT the switch fluorescence ratio was 1.02 ± 0.068.

TGGGTCTCTT was tested, and the switch fluorescence ratio was 1.01 ± 0.008.

TCTTGGGGGT was tested, and the switch fluorescence ratio was 1.03 ± 0.049.

In the case of GCGTGGGATA, the switch fluorescence ratio is reported as 1.03 ± 0.038.

Sequence TCGTTGGTGG has a switch fluorescence ratio of 0.984 ± 0.06.

For AAGGTTTCAA, the switch fluorescence ratio was 0.985 ± 0.018.

In the case of ATATTATTTC, the switch fluorescence ratio is reported as 1.006 ± 0.0058.

TCAGTAATTT showed a switch fluorescence ratio of 1.03 ± 0.032.

AGGAGATTAG gave a switch fluorescence ratio of 0.978 ± 0.029.

GGTGAAAGGA showed a switch fluorescence ratio of 0.979 ± 0.058.

GAGAGTAGAG was tested, and the switch fluorescence ratio was 0.992 ± 0.034.

ATTCGTTTGC showed a switch fluorescence ratio of 1 ± 0.057.

Sequence TGTTCGTCGT has a switch fluorescence ratio of 0.9693 ± 0.0039.

TGCCAGAAGG showed a switch fluorescence ratio of 1.021 ± 0.0041.

CTGATAAGCG was tested, and the switch fluorescence ratio was 0.991 ± 0.039.

For GAAAGGGATT, the switch fluorescence ratio was 1 ± 0.048.

Sequence CCAGGGTTGT has a switch fluorescence ratio of 1.11 ± 0.037.

For AAATATGTGG, the switch fluorescence ratio was 0.989 ± 0.02.

With TAAAAAATGT the switch fluorescence ratio was 1 ± 0.019.

With TTAAGAATTT the switch fluorescence ratio was 0.991 ± 0.031.

For TCACAGCCG, the switch fluorescence ratio was 1.046 ± 0.0085.

For AAAGGCACCC, the switch fluorescence ratio was 1.05 ± 0.019.

In the case of AGGTGGTGTG, the switch fluorescence ratio is reported as 0.984 ± 0.015.

GATAGGAGGA showed a switch fluorescence ratio of 1 ± 0.027.

Work on TTCTCACTTG yielded a switch fluorescence ratio of 1.02 ± 0.03.

For AGATCTTGTG, the switch fluorescence ratio was 1 ± 0.022.

In the case of TTTGGGCCGA, the switch fluorescence ratio is reported as 0.987 ± 0.028.

TTGGGATTGT gave a switch fluorescence ratio of 0.989 ± 0.014.

In the case of TGTAGTAGGT, the switch fluorescence ratio is reported as 1.004 ± 0.002.

For TATGGTGAGC, the switch fluorescence ratio was 1.01 ± 0.023.

For CCGGGCGAGC, the switch fluorescence ratio was 1.08 ± 0.059.

TTTGTGGAGC gave a switch fluorescence ratio of 1.04 ± 0.071.

With TAACACTAGC the switch fluorescence ratio was 1.011 ± 0.0037.

For CAGGGCGGGG, the switch fluorescence ratio was 0.979 ± 0.037.

GAAAGGAGGG gave a switch fluorescence ratio of 1.03 ± 0.065.

AATATAATGT showed a switch fluorescence ratio of 1.03 ± 0.021.

Work on TTAGGGGGG yielded a switch fluorescence ratio of 1.01 ± 0.026.

TAGTTCGGTT showed a switch fluorescence ratio of 1.01 ± 0.016.

For GGGGGTCGC, the switch fluorescence ratio was 1 ± 0.065.

TTCTTGAAG was tested, and the switch fluorescence ratio was 0.966 ± 0.02.

Work on TAAGTAGGGT yielded a switch fluorescence ratio of 1.01 ± 0.023.

GCCGCTATTT gave a switch fluorescence ratio of 1.43 ± 0.18.

TTTGTTGGCT gave a switch fluorescence ratio of 0.972 ± 0.058.

GGGTATAAGA showed a switch fluorescence ratio of 0.9976 ± 0.0075.

With ATGATATGTT the switch fluorescence ratio was 0.992 ± 0.034.

Work on CTTAGGGCGA yielded a switch fluorescence ratio of 0.9728 ± 0.001.

In the case of ATTTGACTCT, the switch fluorescence ratio is reported as 0.986 ± 0.021.

For TGGTTATTTT, the switch fluorescence ratio was 0.998 ± 0.036.

Work on AATTTGGAAG yielded a switch fluorescence ratio of 0.981 ± 0.027.

Work on GGGTCTGGAG yielded a switch fluorescence ratio of 1 ± 0.034.

For TAGCGGAGGC, the switch fluorescence ratio was 1.03 ± 0.03.

TTTCTAGGTG was tested, and the switch fluorescence ratio was 2.06 ± 0.23.

For TAGCAATTTG, the switch fluorescence ratio was 1.05 ± 0.053.
